The source of these data is publication PMC10776578, “Epstein-Barr virus-driven B cell lymphoma mediated by a direct LMP1-TRAF6 complex” (Nature Communications, 2024).

B1: unnamed (parent)
chain 1: DHQIRELTAKMETQSMYVSELKRTIRTLEDKVAEIEAQQCNGIYIWKIGNFGMHLKCQEEEKPVVIHSPGFYTGKPGYKLCMRLHLQLPTAQRCANYISLFVHTMQGEYDSHLPWPFQGTIRLTILDQSEAPVRQNHEEIMDAKPELLAFQRPTIPRNPKGFGYVTFMHLEALRQRTFIKDDTLLVRCEVSTRFDMGSLRREGFQPRSTDAGV
chain 2: GGGPYAQGEDARMLSLVSKTEIEEDSFRQMPTEDEYMDRPSQ
B2: unnamed (parent)
chain 1: B1 chain 1
chain 2: LIWMYYHGQRHSDEHHHDDSLPHPQQATDDSGHESDSNSNEGRHHLLVSGAGDGPPLCSQNLGAPGGGPDNGPQDPDNTDDNGPQDPDNTDDNGPHDPLPQDPDNTDDNGPQDPDNTDDNGPHDPLPHSPSDSAGNDGGPPQLTEEVENKGGDQGPPLMTDGGGGHSHDSGHGGGDPHLPTLLLGSSGSGGDDDDPHGPVQLSYYD
B3: unnamed (parent)
chain 1: B1 chain 1
chain 2: KKVAKKPTNKAPHPKQEPQEINFPDDLPGSNTAAPVQETLHGCQPVTQEDGKESRISVQERQ
B4: unnamed (parent)
chain 1: MSLLNCENSCGSSQSESDCCVAMASSCSAVTKDDSVGGTASTGNLSSSFMEEIQGYDVEFDPPLESKYECPICLMALREAVQTPCGHRFCKACIIKSIRDAGHKCPVDNEILLENQLFPDNFAKREILSLMVKCPNEGCLHKMELRHLEDHQAHCEFALMDCPQCQRPFQKFHINIHILKDCPRRQVSCDNCAASMAFEDKEIHDQNCPLANVICEYCNTILIREQMPNHYDLDCPTAPIPCTFSTFGCHEKMQRNHLARHLQENTQSHMRMLAQAVHSLSVIPDSGYISEVRNFQETIHQLEGRLVRQDHQIRELTAKMETQSMYVSELKRTIRTLEDKVAEIEAQQCNGIYIWKIGNFGMHLKCQEEEKPVVIHSPGFYTGKPGYKLCMRLHLQLPTAQRCANYISLFVHTMQGEYDSHLPWPFQGTIRLTILDQSEAPVRQNHEEIMDAKPELLAFQRPTIPRNPKGFGYVTFMHLEALRQRTFIKDDTLLVRCEVSTRFDMGSLRREGFQPRSTDAGV
chain 2: MEHDLERGPPGPRRPPRGPPLSSSLGLALLLLLLALLFWLYIVMSDWTGGALLVLYSFALMLIIIILIIFIFRRDLLCPLGALCILLLMITLLLIALWNLHGQALFLGIVLFIFGCLLVLGIWIYLLEMLWRLGATIWQLLAFFLAFFLDLILLIIALYLQQNWWTLLVDLLWLLLFLAILIWMYYHGQRHSDEHHHDDSLPHPQQATDDSGHESDSNSNEGRHHLLVSGAGDGPPLCSQNLGAPGGGPDNGPQDPDNTDDNGPQDPDNTDDNGPHDPLPQDPDNTDDNGPQDPDNTDDNGPHDPLPHSPSDSAGNDGGPPQLTEEVENKGGDQGPPLMTDGGGGHSHDSGHGGGDPHLPTLLLGSSGSGGDDDDPHGPVQLSYYD

The variants in the first experiment derive from B1. In words: AlphaScreen. Conditions: with partner chain of the complex shown. For orientation: Bead proximity is the source of the signal in Alpha formats.
Turning to chain 2 GGGPYAQGEDARMLSLVSKTEIEEDSFRQMPTQDEYMDRPSQ [chain 2 E33Q], the dissociation constant (Kd) – broadly, the equilibrium constant for the complex coming apart – was 15.6 nM.

Staying with this experiment, now noted: with partner chain of the complex shown; parent: 100; read off a plot.
For chain 1 DHQIRELTAKMETQSMYVSELKRTIRTLEDKVAEIEAQQCNGIYIWKIGNFGMHLKCQEEEKPVVIHSPGFYTGKPGYKLCMALHLQLPTAQRCANYISLFVHTMQGEYDSHLPWPFQGTIRLTILDQSEAPVRQNHEEIMDAKPELLAFQRPTIPRNPKGFGYVTFMHLEALRQRTFIKDDTLLVRCEVSTRFDMGSLRREGFQPRSTDAGV [chain 1 R83A], the percent of parent stood at 1%.

As for chain 1 DHQIRELTAKMETQSMYVSELKRTIRTLEDKVAEIEAQQCNGIYIWKIGNFGMHLKCQEEEKPVVIHSPGFYTGKPGYKLCMRLHLQLPTAQRCANYISLFVHTMQGEYDSHLPWPFQGTIRLTILDQSEAPVRQNHEEIMDAKPELLAFQRPTIPRNPKGAGYVTFMHLEALRQRTFIKDDTLLVRCEVSTRFDMGSLRREGFQPRSTDAGV [chain 1 F162A], the percent of parent was determined as 1%.

The next experiment covers variants of B2. In words: AlphaScreen. Conditions: with partner chain of the complex shown; parent: 100; read off a plot.
Take chain 1 DHQIRELTAKMETQSMYVSELKRTIRTLEDKVAEIEAQQCNGIYIWKIGNFGMHLKCQEEEKPVVIHSPGFYTGKPGYKLCMALHLQLPTAQRCANYISLFVHTMQGEYDSHLPWPFQGTIRLTILDQSEAPVRQNHEEIMDAKPELLAFQRPTIPRNPKGFGYVTFMHLEALRQRTFIKDDTLLVRCEVSTRFDMGSLRREGFQPRSTDAGV [chain 1 R83A]: the percent of parent stood at 4%.

Regarding chain 1 DHQIRELTAKMETQSMYVSELKRTIRTLEDKVAEIEAQQCNGIYIWKIGNFGMHLKCQEEEKPVVIHSPGFYTGKPGYKLCMRLHLQLPTAQRCANYISLFVHTMQGEYDSHLPWPFQGTIRLTILDQSEAPVRQNHEEIMDAKPELLAFQRPTIPRNPAGFGYVTFMHLEALRQRTFIKDDTLLVRCEVSTRFDMGSLRREGFQPRSTDAGV [chain 1 K160A], the percent of parent amounted to 100%.

For the variant chain 1 DHQIRELTAKMETQSMYVSELKRTIRTLEDKVAEIEAQQCNGIYIWKIGNFGMHLKCQEEEKPVVIHSPGFYTGKPGYKLCMRLHLQLPTAQRCANYISLFVHTMQGEYDSHLPWPFQGTIRLTILDQSEAPVRQNHEEIMDAKPELLAFQRPTIPRNPKGAGYVTFMHLEALRQRTFIKDDTLLVRCEVSTRFDMGSLRREGFQPRSTDAGV [chain 1 F162A], the percent of parent was 5%.

The same experiment, now with this note: with partner chain of the complex shown; 100 nM His-TRAF6; parent: 100; read off a plot.
With chain 2 LIWMYYHGQRHSDEHHHDDSLPHPQQATDDSGHESDSNSNEGRHHLLVSGAGDGPPLCSQNLGAPGGGPDNGPQDPDNTDDNGPQDPDNTDDNGPHDPLPQDPDNTDDNGPQDPDNTDDNGPHDPLPHSPSDSAGNDGGPPQLTEEVENKGGDQGPPLMTDGGGGHSHDSGHGGGDPHLPTLLLGSSGSGGDDDDPHGAVQLSYYD [chain 2 P199A], the percent of parent was 18%.

On to chain 2 Q201A, for which the percent of parent was 7%.

The same experiment, now with this note: with partner chain of the complex shown; 300 nM His-TRAF6; parent: 100; read off a plot.
Take chain 2 LIWMYYHGQRHSDEHHHDDSLPHPQQATDDSGHESDSNSNEGRHHLLVSGAGDGPPLCSQNLGAPGGGPDNGPQDPDNTDDNGPQDPDNTDDNGPHDPLPQDPDNTDDNGPQDPDNTDDNGPHDPLPHSPSDSAGNDGGPPQLTEEVENKGGDQGPPLMTDGGGGHSHDSGHGGGDPHLPTLLLGSSGSGGDDDDPHGAVQLSYYD [chain 2 P199A]: the percent of parent came out at 19%.

Take chain 2 Q201A: the percent of parent is 6%.

Staying with this experiment, now noted: with partner chain of the complex shown; 1000 nM His-TRAF6; parent: 100; read off a plot.
Turning to chain 2 LIWMYYHGQRHSDEHHHDDSLPHPQQATDDSGHESDSNSNEGRHHLLVSGAGDGPPLCSQNLGAPGGGPDNGPQDPDNTDDNGPQDPDNTDDNGPHDPLPQDPDNTDDNGPQDPDNTDDNGPHDPLPHSPSDSAGNDGGPPQLTEEVENKGGDQGPPLMTDGGGGHSHDSGHGGGDPHLPTLLLGSSGSGGDDDDPHGAVQLSYYD [chain 2 P199A], the percent of parent turned out to be 21%.

For chain 2 Q201A, the percent of parent is 4%.

In the next experiment the parent is B3. In words: AlphaScreen. As to conditions: with partner chain of the complex shown; parent: 100; read off a plot.
Turning to chain 1 DHQIRELTAKMETQSMYVSELKRTIRTLEDKVAEIEAQQCNGIYIWKIGNFGMHLKCQEEEKPVVIHSPGFYTGKPGYKLCMRLHLQLPTAQRCANYISLFVHTMQGEYDSHLPWPFQGTIRLTILDQSEAPVRQNHEEIMDAKPELLAFQRPTIPRNPKGFGAVTFMHLEALRQRTFIKDDTLLVRCEVSTRFDMGSLRREGFQPRSTDAGV [chain 1 Y164A], the percent of parent worked out at 1%.

As for chain 1 DHQIRELTAKMETQSMYVSELKRTIRTLEDKVAEIEAQQCNGIYIWKIGNFGMHLKCQEEEKPVVIHSPGFYTGKPGYKLCMALHLQLPTAQRCANYISLFVHTMQGEYDSHLPWPFQGTIRLTILDQSEAPVRQNHEEIMDAKPELLAFQRPTIPRNPKGFGYVTFMHLEALRQRTFIKDDTLLVRCEVSTRFDMGSLRREGFQPRSTDAGV [chain 1 R83A], the percent of parent is 85%.

For the variant chain 1 DHQIRELTAKMETQSMYVSELKRTIRTLEDKVAEIEAQQCNGIYIWKIGNFGMHLKCQEEEKPVVIHSPGFYTGKPGYKLCMRLHLQLPTAQRCANYISLFVHTMQGEYDSHLPWPFQGTIRLTILDQSEAPVRQNHEEIMDAKPELLAFQRPTIPRNPKGAGYVTFMHLEALRQRTFIKDDTLLVRCEVSTRFDMGSLRREGFQPRSTDAGV [chain 1 F162A], the percent of parent came to 1%.

Consider chain 1 DHQIRELTAKMETQSMYVSELKRTIRTLEDKVAEIEAQQCNGIYIWKIGNFGMHLKCQEEEKPVVIHSPGFYTGKPGYKLCMRLHLQLPTAQRCANYISLFVHTMQGEYDSHLPWPFQGTIRLTILDQSEAPVRQNHEEIMDAKPELLAFQRPTIPRNPAGFGYVTFMHLEALRQRTFIKDDTLLVRCEVSTRFDMGSLRREGFQPRSTDAGV [chain 1 K160A], for which the percent of parent was 90%.

Variants of B4 are the subject of the next experiment. In words: co-immunoprecipitation, quantified immunoblot. As to conditions: with partner chain of the complex shown; HEK293 cells; parent: 1.3e+07; read off a plot. (In western blotting, separated proteins are transferred to a membrane and probed.)
Regarding chain 1 MSLLNCENSCGSSQSESDCCVAMASSCSAVTKDDSVGGTASTGNLSSSFMEEIQGYDVEFDPPLESKYECPICLMALREAVQTPCGHRFCKACIIKSIRDAGHKCPVDNEILLENQLFPDNFAKREILSLMVKCPNEGCLHKMELRHLEDHQAHCEFALMDCPQCQRPFQKFHINIHILKDCPRRQVSCDNCAASMAFEDKEIHDQNCPLANVICEYCNTILIREQMPNHYDLDCPTAPIPCTFSTFGCHEKMQRNHLARHLQENTQSHMRMLAQAVHSLSVIPDSGYISEVRNFQETIHQLEGRLVRQDHQIRELTAKMETQSMYVSELKRTIRTLEDKVAEIEAQQCNGIYIWKIGNFGMHLKCQEEEKPVVIHSPGFYTGKPGYKLCMRLHLQLPTAQRCANYISLFVHTMQGEYDSHLPWPFQGTIRLTILDQSEAPVRQNHEEIMDAKPELLAFQRPTIPRNPKGAGYVTFMHLEALRQRTFIKDDTLLVRCEVSTRFDMGSLRREGFQPRSTDAGV [chain 1 F471A], the response (relative intensity) amounted to 6e+06.

Take chain 1 MSLLNCENSCGSSQSESDCCVAMASSCSAVTKDDSVGGTASTGNLSSSFMEEIQGYDVEFDPPLESKYECPICLMALREAVQTPCGHRFCKACIIKSIRDAGHKCPVDNEILLENQLFPDNFAKREILSLMVKCPNEGCLHKMELRHLEDHQAHCEFALMDCPQCQRPFQKFHINIHILKDCPRRQVSCDNCAASMAFEDKEIHDQNCPLANVICEYCNTILIREQMPNHYDLDCPTAPIPCTFSTFGCHEKMQRNHLARHLQENTQSHMRMLAQAVHSLSVIPDSGYISEVRNFQETIHQLEGRLVRQDHQIRELTAKMETQSMYVSELKRTIRTLEDKVAEIEAQQCNGIYIWKIGNFGMHLKCQEEEKPVVIHSPGFYTGKPGYKLCMRLHLQLPTAQRCANYISLFVHTMQGEYDSHLPWPFQGTIRLTILDQSEAPVRQNHEEIMDAKPELLAFQRPTIPRNPKGFGAVTFMHLEALRQRTFIKDDTLLVRCEVSTRFDMGSLRREGFQPRSTDAGV [chain 1 Y473A]: the response (relative intensity) was found to be 5.5e+06.

chain 1 MSLLNCENSCGSSQSESDCCVAMASSCSAVTKDDSVGGTASTGNLSSSFMEEIQGYDVEFDPPLESKYECPICLMALREAVQTPCGHRFCKACIIKSIRDAGHKCPVDNEILLENQLFPDNFAKREILSLMVKCPNEGCLHKMELRHLEDHQAHCEFALMDCPQCQRPFQKFHINIHILKDCPRRQVSCDNCAASMAFEDKEIHDQNCPLANVICEYCNTILIREQMPNHYDLDCPTAPIPCTFSTFGCHEKMQRNHLARHLQENTQSHMRMLAQAVHSLSVIPDSGYISEVRNFQETIHQLEGRLVRQDHQIRELTAKMETQSMYVSELKRTIRTLEDKVAEIEAQQCNGIYIWKIGNFGMHLKCQEEEKPVVIHSPGFYTGKPGYKLCMALHLQLPTAQRCANYISLFVHTMQGEYDSHLPWPFQGTIRLTILDQSEAPVRQNHEEIMDAKPELLAFQRPTIPRNPKGFGYVTFMHLEALRQRTFIKDDTLLVRCEVSTRFDMGSLRREGFQPRSTDAGV [chain 1 R392A]: the response (relative intensity) came to 2.5e+06.

As for chain 1 MSLLNCENSCGSSQSESDCCVAMASSCSAVTKDDSVGGTASTGNLSSSFMEEIQGYDVEFDPPLESKYECPICLMALREAVQTPCGHRFCKACIIKSIRDAGHKCPVDNEILLENQLFPDNFAKREILSLMVKCPNEGCLHKMELRHLEDHQAHCEFALMDCPQCQRPFQKFHINIHILKDCPRRQVSCDNCAASMAFEDKEIHDQNCPLANVICEYCNTILIREQMPNHYDLDCPTAPIPCTFSTFGCHEKMQRNHLARHLQENTQSHMRMLAQAVHSLSVIPDSGYISEVRNFQETIHQLEGRLVRQDHQIRELTAKMETQSMYVSELKRTIRTLEDKVAEIEAQQCNGIYIWKIGNFGMHLKCQEEEKPVVIHSPGFYTGKPGYKLCMRLHLQLPTAQRCANYISLFVHTMQGEYDSHLPWPFQGTIRLTILDQSEAPVRQNHEEIMDAKPELLAFQRPTIPRNPAGFGYVTFMHLEALRQRTFIKDDTLLVRCEVSTRFDMGSLRREGFQPRSTDAGV [chain 1 K469A], the response (relative intensity) worked out at 1.8e+07.
